From patent US20200038441A1 (NANTKWEST, published 2020)

Molecular target: PD-L1 on SUP-B15 PD-L1+ cells (UniProt Q9NZQ7 19-290, limits assumed)
Assay: cell-based or functional assay

PD-L1 on SUP-B15 PD-L1+ cells, sequence (Q9NZQ7 19-290 limits assumed): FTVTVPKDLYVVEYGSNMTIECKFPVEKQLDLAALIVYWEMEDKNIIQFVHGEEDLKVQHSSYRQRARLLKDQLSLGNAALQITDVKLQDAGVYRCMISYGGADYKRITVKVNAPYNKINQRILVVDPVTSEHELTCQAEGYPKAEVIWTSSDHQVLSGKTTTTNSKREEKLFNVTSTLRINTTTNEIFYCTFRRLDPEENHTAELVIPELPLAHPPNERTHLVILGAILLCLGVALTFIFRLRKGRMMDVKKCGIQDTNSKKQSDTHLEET

B1: PD-L1 CAR expressed on aTGFβ/PD-L1 t-haNK cells (other)
chain: MDWIWRILFLVGAATGAHSAQPANIQMTQSPSSVSASVGDRVTITCRASQDISRWLAWYQQKPGKAPKLLIYAASSLQSGVPSRFSGSGSGTDFALTISSLQPEDFATYYCQQADSRFSITFGQGTRLEIKGGGGSGGGGSGGGGSGGGGSEVQLVQSGGGLVQPGGSLRLSCAASGFTFSSYSMNWVRQAPGKGLEWVSYISSSSSTIQYADSVKGRFTISRDNAKNSLYLQMNSLRDEDTAVYYCARGDYYYGMDVWGQGTTVTVSSAAALSNSIMYFSHFVPVFLPAKPTTTPAPRPPTPAPTIASQPLSLRPEACRPAAGGAVHTRGLDFACFWVLVVVGGVLACYSLLVTVAFIIFWVRLKIQVRKAAITSYEKSDGVYTGLSTRNQETYETLKHEKPPQ
  specific killing of SUP-B15 PD-L1+ target cells, 4 h cytotoxicity assay, effector to target ratio of 8: ~70%
